In patent publication US7304127:
Where “and” joins values, the source holds several entries; their conditions need not be identical. Equal entries are not always repeated.

Each binder was assayed against HIV-1LAI envelope gp120 labeled with radioactive iodine (HIV-1 LAI), P03377 (assay: 125I-gp120, peptide array).

Binder | counts minus background (counts per 20 min)
ALAFFHCCLNPILYAFLG (modifications not checked) [CXCR4 289-306] | 181
FHCCLNPILYAFLGAKFK (modifications not checked) [CXCR4 293-310] | 123
LKSMTDIYLLNLAISDLF (modifications not checked) [CCR5 61-78] | 210
LNPILYAFLGAKFKTSAQ (modifications not checked) [CXCR4 297-314] | 274
LYAFLGAKFKTSAQHALT (modifications not checked) [CXCR4 301-318] | 156
LGAKFKTSAQHALTSVSR (modifications not checked) [CXCR4 305-322] | 200
FKTSAQHALTSVSRGSSL (modifications not checked) [CXCR4 309-326] | 173
AQHALTSVSRGSSLKILS (modifications not checked) [CXCR4 313-330] | 147
LTSVSRGSSLKILSKGKR (modifications not checked) [CXCR4 317-334] | 183
SRGSSLKILSKGKRGGHS (modifications not checked) [CXCR4 321-338] | 169
SLKILSKGKRGGHSSVST (modifications not checked) [CXCR4 325-342] | 285
LSKGKRGGHSSVSTESES (modifications not checked) [CXCR4 329-346] | 185
KRGGHSSVSTESESSSFH (modifications not checked) [CXCR4 333-350] | 167
TDIYLLNLAISDLFFLLT (modifications not checked) [CCR5 65-82] | 38
HSSVSTESESSSFHSS (modifications not checked) [CXCR4 337-352] | 103
MAEHDYHEDYGFSSFNDS (modifications not checked) [STRL33 1-18] | 1180 and 1320
DYHEDYGFSSFNDSSQEE (modifications not checked) [STRL33 5-22] | 3360 and 3690
DYGFSSFNDSSQEEHQAF (modifications not checked) [STRL33 9-26] | 8580 and 8910
SSFNDSSQEEHQAFLQFS (modifications not checked) [STRL33 13-30] | 2690 and 2760
DSSQEEHQAFLQFSKVFL (modifications not checked) [STRL33 17-34] | 870 and 2150
LLNLAISDLFFLLTVPFW (modifications not checked) [CCR5 69-86] | 144
EEHQAFLQFSKVFLPCMY (modifications not checked) [STRL33 21-38] | 2320 and 1820

Binder | counts minus background (counts per 20 min)
AFLQFSKVFLPCMYLVVF (modifications not checked) [STRL33 25-42] | 1420 and 1360
MYLVVFVCGLVGNSLVLV (modifications not checked) [STRL33 37-54] | 168 and 236
AISDLFFLLTVPFWAHYA (modifications not checked) [CCR5 73-90] | 41
GLVGNSLVLVISIFYHKL (modifications not checked) [STRL33 45-62] | 164 and 95.5
NSLVLVISIFYHKLQSLT (modifications not checked) [STRL33 49-66] | 1260 and 1380
LVISIFYHKLQSLTDVFL (modifications not checked) [STRL33 53-70] | 1620 and 1780
IFYHKLQSLTDVFLVNLP (modifications not checked) [STRL33 57-74] | 1280 and 1260
VSSPIYDINYYTSEPCQK (modifications not checked) [CCR5 5-22] | 383
LFFLLTVPFWAHYAAAQW (modifications not checked) [CCR5 77-94] | 173
LTDVFLVNLPLADLVFVC (modifications not checked) [STRL33 65-82] | 234 and 336
FLVNLPLADLVFVCTLPF (modifications not checked) [STRL33 69-86] | 70.5 and 51.5
LPLADLVFVCTLPFWAYA (modifications not checked) [STRL33 73-90] | 558 and 960
DLVFVCTLPFWAYAGIHE (modifications not checked) [STRL33 77-94] | 1120 and 1060
LTVPFWAHYAAAQWDFGN (modifications not checked) [CCR5 81-98] | 306
VCTLPFWAYAGIHEWVFG (modifications not checked) [STRL33 81-98] | 1820 and 1750
PFWAYAGIHEWVFGQVMC (modifications not checked) [STRL33 85-102] | 7260 and 7540
YAGIHEWVFGQVMCKSLL (modifications not checked) [STRL33 89-106] | 5910 and 6250
HEWVFGQVMCKSLLGIYT (modifications not checked) [STRL33 93-110] | 3390 and 3470
FGQVMCKSLLGIYTINFY (modifications not checked) [STRL33 97-114] | 1260 and 1350
FWAHYAAAQWDFGNTMCQ (modifications not checked) [CCR5 85-102] | 212
MCKSLLGIYTINFYTSML (modifications not checked) [STRL33 101-118] | 1510 and 1280
MLILTCITVDRFIVVVKA (modifications not checked) [STRL33 117-134] | 298 and 228

Binder | counts minus background (counts per 20 min)
YAAAQWDFGNTMCQLLTG (modifications not checked) [CCR5 89-106] | 494
VDRFIVVVKATKAYNQQA (modifications not checked) [STRL33 125-142] | 104 and 53.5
QWDFGNTMCQLLTGLYFI (modifications not checked) [CCR5 93-110] | 1020
QAKRMTWGKVTSLLIWVI (modifications not checked) [STRL33 141-158] | -71.5 and -31.5
KVTSLLIWVISLLVSLPQ (modifications not checked) [STRL33 149-166] | -39.5 and -118
LLIWVISLLVSLPQIIYG (modifications not checked) [STRL33 153-170] | 42.5 and 75.5
VISLLVSLPQIIYGNVFN (modifications not checked) [STRL33 157-174] | -60.5 and -128
GNTMCQLLTGLYFIGFFS (modifications not checked) [CCR5 97-114] | 941
PQIIYGNVFNLDKLICGY (modifications not checked) [STRL33 165-182] | -18.5 and -37.5
YGNVFNLDKLICGYHDEA (modifications not checked) [STRL33 169-186] | -41.5 and -20.5
FNLDKLICGYHDEAISTV (modifications not checked) [STRL33 173-190] | 1070 and 1080
KLICGYHDEAISTVVLAT (modifications not checked) [STRL33 177-194] | 1360 and 1600
CQLLTGLYFIGFFSGIFF (modifications not checked) [CCR5 101-118] | 489
GYHDEAISTVVLATQMTL (modifications not checked) [STRL33 181-198] | 754 and 1180
EAISTVVLATQMTLGFFL (modifications not checked) [STRL33 185-202] | 3970 and 3750
TVVLATQMTLGFFLPLLT (modifications not checked) [STRL33 189-206] | 2330 and 2390
ATQMTLGFFLPLLTMIVC (modifications not checked) [STRL33 193-210] | 2370 and 2440
FLPLLTMIVCYSVIIKTL (modifications not checked) [STRL33 201-218] | 1270 and 1200
LTMIVCYSVIIKTLLHAG (modifications not checked) [STRL33 205-222] | 2790 and 2650
VCYSVIIKTLLHAGGFQK (modifications not checked) [STRL33 209-226] | 1330 and 1140
VIIKTLLHAGGFQKHRSL (modifications not checked) [STRL33 213-230] | 962 and 682
